The source of these data is the DeepSol protein solubility set.

The nature of this data set: soluble on expression in E. coli; label from the status in PepcDB or PDB records.
For “AAGSINTLAQAEVRSRQISVSSPGSSTDINVKKIASIGDVCESMKQQLLVLVEWAKYIPAFCELPLDDQVALLRAHAGEHLLLGATKRSMMYKDILLLGNNYVIHRNSCEVEISRVANRVLDELVRPFQEIQIDDNEYACLKAIVFFDPDAKGLSDPVKIKNMRFQVQIGLEDYINDRQYDSRGRFGELLLLLPTLQSITWQMIEQIQFVKLFGMVKIDNLLQEMLLGG”, the “soluble on expression in E. coli” value is “soluble”.

With “AASQSTPWGIKAIYNNSNLTSTSGGAGINIAVLDTGVNTNHPDLSNNVEQCKDFTVGTNFTDNSCTDRQGHGTHVAGSALANGGTGSGVYGVAPEADLWAYKVLGDDGSGYADDIAEAIRHAGDQATALNTKVVINMSLGSSGESSLITNAVDYAYDKGVLIIAAAGNSGPKPGSIGYPGALVNAVAVAALENTIQNGTYRVADFSSRGHKRTAGDYVIQKGDVEISAPGAAVYSTWFDGGYATISGTSMASPHAAGLAAKIWAQSPAASNVDVRGELQTRASVNDILSGNSAGSGDDIASGFGFAKVQ”, the “soluble on expression in E. coli” value was “soluble”. For “ADKKRALEKEDMERLMKDIPKQLHSGNRELQRARGFFILMFLLRGMPFVDLAYLKKHDIDGNVLTYRRRKTGRMLTVTLLPEAVKLIKQHMNTDPAFPYLFSLISSKEGTEEAYKEYQLALRNFNYQLMILKQVLGLTTDLSSYTARHTWATMAYYCEVHPGVISEAMGHSSITVTETYLKPFKNKKIDEANVMVFSSFRKSFSVGNCLN” the value was “not soluble”; for “AECSVDIQGNDQMQFNTNAITVDKSCKQFTVNLSHPGNLPKNVMGHNWVLSTAADMQGVVTDGMASGLDKDYLKPDDSRVIAHTKLIGSGEKDSVTFDVSKLKEGEQYMFFCSELCGINHALMKGTLTLK”, “soluble”; for “AEICLITGTPGSGKTLKMVSMMANDEMFKPDENGIRRKVFTNIKGLKIPHTYIETDAKKLPKSTDEQLSAHDMYEWIKKPENIGSIVIVDEAQDVWPARSAGSKIPENVQWLNTHRHQGIDIFVLTQGPKLLDQNLRTLVRKHYHIASNKMGMRTLLEWKICADDPVKMASSAFSSIYTLDKKVYDLYESAEVHTVNKVKRSK”, “not soluble”. For “AEIYNKDGNKLDLYGKIDGLHYFSDDKDVDGDQTYMRLGVKGETQINDQLTGYGQWEYNVQANNTESSSDQAWTRLAFAGLKFGDAGSFDYGRNYGVVYDVTSWTDVLPEFGGDTYGSDNFLQSRANGVATYRNSDFFGLVDGLNFALQYQGKNGSVSGEGATNNGRGALKQNGDGFGTSVTYDIFDGISAGFAYANSKRTDDQNQLLLGEGDHAETYTGGLKYDANNIYLATQYTQTYNATRAGSLGFANKAQNFEVAAQYQFDFGLRPSVAYLQSKGKDLNGYGDQDILKYVDVGATYYFNKNMSTYVDYKINLLDDNSFTRSAGISTDDVVALGLVYQF” the value was “soluble”; for “AELLLSDNEDKKQRIKEEKQLKLVKWNFQAPTDEHISQLQTLLGNQAKVSLMSQLFHKDFKQHLAALDSLVRLADTSPRSLLSNSDLLLKWCTLRFFETNPAALIKVLELCKVIVELIRDTETPMSQEEVSAFVPYLLLKTGEAKDNMRTSVRDIVNVLSDVVGPLKMTPMLLDALKSKNARQRSECLLVIEYYITNAGISPLKSLSVEKTVAPFVGDKDVNVRNAAINVLVACFKFEGDQMWKAAGRMADKDKSLVEERIKRTGV”, “soluble”; for “AEPAGRQRPRREPEAMDEQSVESIAEVFRCFICMEKLRDARLCPHCSKLCCFSCIRRWLTEQRAQCPHCRAPLQLRELVNCRWAEEVTQQLDTLQLCSLTKHEENEKDKCENHHEKLSVFCWTCKKCICHQCALWGGMHGGHTFKPLAEIYEQHVTKVNEEVAKLRRRLMELISLVQEVERNVEAVRNAKDERVREIRNAVEMMIARLDTQLKNKLITLMGQKTSLTQETELLESLLQEVEHQLRSCSKSELISKSSEILMMFQQVHRKPMASFVTTPVPPDFTSELVPSYDSATFVLENFSTLRQRADPVYSPPLQVSGLCWRLKVYPDGNGVVRGYYLSVFLELSAGLPETSKYEYRVEMVHQSCNDPTKNIIREFASDFEVGECWGYNRFFRLDLLANEGYLNPQNDTVILRFQVRSPTFFQKSRDQHWYITQLEAAQTSYIQQINNLKERLTIELSRTQKSRDLSPPDNHLSPQNDDALETRAKKSACSDMLLEGGPTTASVREAKEDEEDEEKIQNEDYHHELSDGDLDLDLVYEDEVNQLDGSSSSASSTATSNTEENDIDEETMSGENDVEYNNMELEEGELMEDAAAAGPAGSSHGYVGSSSRISRRTHLCSAATSSLLDIDPLILIHLLDLKDRSSIENLWGLQPRPPASLLQPTASYSRKDKDQRKQQAMWRVPSDLKMLKRLKTQMAEVRCMKTDVKNTLSEIKSSSAASGDMQTSLFSADQAALAACGTENSGRLQDLGMELLAKSSVANCYIRNSTNKKSNSPKPARSSVAGSLSLRRAVDPGENSRSKGDCQTLSEGSPGSSQSGSRHSSPRALIHGSIGDILPKTEDRQCKALDSDAVVVAVFSGLPAVEKRRKMVTLGANAKGGHLEGLQMTDLENNSETGELQPVLPEGASAAPEEGMSSDSDIECDTENEEQEEHTSVGGFHDSFMVMTQPPDEDTHSSFPDGEQIGPEDLSFNTDENSGR”, “soluble”. For “AETTVKPTKLAVIGAGAVGSTLAFAAAQRGIAREIVLEDIAKERVEAEVLDMQHGSSFYPTVSIDGSDDPEICRDADMVVITAGPRQKPGQSRLELVGATVNILKAIMPNLVKVAPNAIYMLITNPVDIATHVAQKLTGLPENQIFGSGTNLDSARLRFLIAQQTGVNVKNVHAYIAGEHGDSEVPLWESATIGGVPMSDWTPLPGHDPLDADKREEIHQEVKNAAYKIINGKGATNYAIGMSGVDIIEAVLHDTNRILPVSSMLKDFHGISDICMSVPTLLNRQGVNNTINTPVSDKELAALKRSAETLKETAAQFGF” the value was “soluble”. For “AFEKKTANIYTYKSTSGVTSFSDIEPLDVDFSRYRFDCYACEVDSLIDWRKATLYLQPYKNDINKAALKYDIDPAFVRAVIHAESHFNPQAVSKQGAQGLMQLMPATAKELGVRNSLSAQQNIKGGVKHLARLLRKYKGDNKLASAAYNAGEGAVKRHGGIPPYKETQVYVERVGILHQRYGRFSH”, the “soluble on expression in E. coli” value is “not soluble”. For “AFSSTTTLTPSNVASREFIDTRAPNPEICVQYGASAMVMDARLFVTLNPFNVYVAQPNIRPGCVLRQNNWAILENKKLVTSDQVRECKNRLNTFGFTGNLDSEKPDIRCIYQNESAQNFFLSQPGAVGPSQDTERF” the value was “not soluble”. For “AFYNITLRTNDGEKKIECNEDEYILDASERQNVELPYSCRGGSCSTCAAKLVEGEVDNDDQSYLDEEQIKKKYILLCTCYPKSDCVIETHKEDELHDM” the value was “soluble”; for “AGENLYFQSLMNNFGNEEFDCHFLDEGFTAKDILDQKINEVSSSDDKDAFYVADLGDILKKHLRWLKALPRVTPFYAVKCNDSKAIVKTLAATGTGFDCASKTEIQLVQSLGVPPERIIYANPCKQVSQIKYAANNGVQMMTFDSEVELMKVARAHPKAKLVLRIATDDSKAVCRLSVKFGATLRTSRLLLERAKELNIDVVGVSFHVGSGCTDPETFVQAISDARCVFDMGAEVGFSMYLLDIGGGFPGSEDVKLKFEEITGVINPALDKYFPSDSGVRIIAEPGRYYVASAFTLAVNIIAKKIVLKEQTGSDDEDESSEQTFMYYVNDGVYGSFNCILYDHAHVKPLLQKRPKPDEKYYSSSIWGPTCDGLDRIVERCDLPEMHVGDWMLFENMGAYTVAAASTFNGFQRPTIYYVMSGPAWQLMQQFQNPDFPPEVEEQDASTLPVSCAWESGMKRHRAACASASINV”, “soluble”. For “AGHDGSQLAARLDLPQGPVLATALFAHCFTCSKDIPAARRIAARLAAMGIAVLRFDFTGLGHSEGEFANTTFTSNVGDLAAAARYLAGRDMAPALLIGHSLGGAAVLRARAQIASVRAVVTIGAPADPGHVAHHFETALPRIQAEGAAEVCLGGRPFRIGRDFVEDIAASALQPAIADLRAALLVLHAPRDETVSIDNASQIFMAAKHPKSFVTLDDADHLISRARDAEYAAEVIAAWAGRYVD” the value was “not soluble”; for “AGLPRNAVTAVVPSPFHHAEAGVLRVPDLKADPRNAAEHTAAIIRELPELVKGARGSLVLFSSRKQMQEVFDGLDRDWRKRVFIQGNLSKQETLNKHKSRVDDGEDSVLFGLASFAEGVDLPGAYCEHVVIAKIPFAVPDDPVEAALAEWIEARGGNPFMEIAVPDASLRLVQACGRLLRTEQDRGTITLLDRRVVTQRYGKAILNALPPFRREIA”, “not soluble”.
